Results reported in the supplement of paper PMC7125110.
± gives the standard error. This sample holds only a part of the variants without activity.

B1: glmS ribozyme (parent)
chain: AUAAAAGCGCCAGAACUACAGAAAUGUAGUUGACGAGGAGGAGGUUUAUCGAAUUUUCGGCGGAUGCCUCCAAA

How the values were obtained:
Conditions in all cases: with glucosamine-6-phosphate
glucosamine-6-phosphate [1] = variants of: B1; assay: self-cleavage kobs at 40 uM GlcN6P; higher = faster cleavage; RNA array
How it was run: (§1)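 Ribozyme variants carrying barcodes were transcribed in situ on sequenced MiSeq chips by E. coli RNA polymerase and tracked at 37 °C with a hybridised Cy3 probe. They were exposed to 40 μM to 10 mM glucosamine-6-phosphate in HEPES/KCl/Mg(OAc)2 buffer. kobs came from exponential decay fits of normalised per-tile medians, and kcat and KM from weighted Michaelis–Menten fits.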

glucosamine-6-phosphate [2] = variants of: B1; assay: self-cleavage kobs at 10000 uM GlcN6P; higher = faster cleavage; RNA array
How it was run: as §1

glucosamine-6-phosphate [3] = variants of: B1; assay: self-cleavage kobs at 160 uM GlcN6P; higher = faster cleavage; RNA array
How it was run: as §1

glucosamine-6-phosphate [4] = variants of: B1; assay: self-cleavage kobs at 640 uM GlcN6P; higher = faster cleavage; RNA array
How it was run: as §1

glucosamine-6-phosphate [5] = variants of: B1; assay: self-cleavage kobs at 2500 uM GlcN6P; higher = faster cleavage; RNA array
How it was run: as §1

| Variant | self-cleavage kobs at 40 uM GlcN6P (glucosamine-6-phosphate [1]) [s⁻¹] | self-cleavage kobs at 10000 uM GlcN6P (glucosamine-6-phosphate [2]) [s⁻¹] | self-cleavage kobs at 160 uM GlcN6P (glucosamine-6-phosphate [3]) [s⁻¹] | self-cleavage kobs at 640 uM GlcN6P (glucosamine-6-phosphate [4]) [s⁻¹] | self-cleavage kobs at 2500 uM GlcN6P (glucosamine-6-phosphate [5]) [s⁻¹] |
| --- | --- | --- | --- | --- | --- |
| U45G A52C U55C C71U | < 1e-05 |  |  |  |  |
| C10U A36C U56C | < 1e-05 |  |  |  |  |
| A15U U55G C61U | < 1e-05 | < 1e-05 |  |  |  |
| C34U U65A | < 1e-05 | < 1e-05 | < 1e-05 | < 1e-05 |  |
| G7U G37C C61A C68G C70U | 0.000181 ± 5.8e-05 | 9.36e-05 ± 2.7e-05 |  |  |  |
| C10U G38A G66U | < 1e-05 |  |  |  |  |
| A42G A52U C70A | < 1e-05 |  | < 1e-05 |  |  |
| C16U U54A | 0.000888 ± 0.00012 | 0.0405 ± 0.0081 | 0.00185 ± 0.0004 | 0.00323 ± 0.00079 | 0.00607 ± 0.0014 |
| C10U G29C G37A A53C | < 1e-05 |  |  |  |  |
| C10U U54A C70A | < 1e-05 |  |  |  |  |
| C16U G41U A53U | 3.27e-05 ± 1.6e-05 | 0.00071 ± 0.00015 |  |  |  |
| U49A C50G U57A C67A C71A | 0.000473 ± 0.00018 |  | 0.000223 ± 6.6e-05 | 0.000357 ± 0.00011 | 7.6e-05 ± 3.3e-05 |
| U30G G38U A39U G66A | < 1e-05 | < 1e-05 |  |  |  |
| G7C A15G | < 1e-05 | < 1e-05 |  |  |  |
| A33C A42U C61A | < 1e-05 |  |  |  |  |
| G9A G38A | < 1e-05 | < 1e-05 |  |  |  |
| G13C A39U G59U | < 1e-05 |  |  |  |  |
| A6U A48U C70U | < 1e-05 |  |  |  |  |
| C50G G59U C67G | 0.000108 ± 1.9e-05 | 5.5e-05 ± 1.5e-05 |  |  | 0.000245 ± 5.2e-05 |
| G44C C68A | < 1e-05 | < 1e-05 | < 1e-05 | < 1e-05 | < 1e-05 |
| G44U C50G A53U G59A C68A | < 1e-05 |  |  |  |  |
| A6G G32C | < 1e-05 | < 1e-05 | < 1e-05 | < 1e-05 |  |
| C50G C61U A64G | 0.000244 ± 8.5e-05 | 4.62e-05 ± 1.7e-05 | 8.89e-05 ± 3.2e-05 | 0.000192 ± 8.3e-05 |  |
| C34G A64G | < 1e-05 | < 1e-05 | < 1e-05 | < 1e-05 | < 1e-05 |
| G35A A48C U55G | < 1e-05 |  |  |  |  |

| Variant | self-cleavage kobs at 40 uM GlcN6P (glucosamine-6-phosphate [1]) [s⁻¹] | self-cleavage kobs at 10000 uM GlcN6P (glucosamine-6-phosphate [2]) [s⁻¹] | self-cleavage kobs at 160 uM GlcN6P (glucosamine-6-phosphate [3]) [s⁻¹] | self-cleavage kobs at 640 uM GlcN6P (glucosamine-6-phosphate [4]) [s⁻¹] | self-cleavage kobs at 2500 uM GlcN6P (glucosamine-6-phosphate [5]) [s⁻¹] |
| --- | --- | --- | --- | --- | --- |
| A36C U65A | < 1e-05 |  |  | < 1e-05 | < 1e-05 |
| G32A G44C C71G | < 1e-05 | < 1e-05 |  |  |  |
| C8G A15C | < 1e-05 | < 1e-05 | < 1e-05 | < 1e-05 | < 1e-05 |
| A42U A53G U56C C71U | < 1e-05 |  |  |  |  |
| A14C G59C | < 1e-05 | < 1e-05 | < 1e-05 | < 1e-05 |  |
| A52C G62U | < 1e-05 | < 1e-05 | < 1e-05 |  |  |
| G32A A33C | < 1e-05 |  | < 1e-05 |  |  |
| A6U A52C | < 1e-05 | < 1e-05 | < 1e-05 | < 1e-05 | < 1e-05 |
| G40C C61A | < 1e-05 |  |  |  | < 1e-05 |
| G40A U47G | 8.03e-05 ± 1.9e-05 | 0.00267 ± 0.0004 | 0.000122 ± 2.3e-05 | 0.000547 ± 0.00011 | 0.00069 ± 0.00018 |
| A48C G60U | < 1e-05 | < 1e-05 | < 1e-05 | < 1e-05 | < 1e-05 |
| A6G A12G U31A U54A C71A | < 1e-05 |  | < 1e-05 | < 1e-05 | < 1e-05 |
| C10A G37C C68U | < 1e-05 |  |  |  |  |
| G32A A39C G44U | < 1e-05 | < 1e-05 |  |  |  |
| C16A C58U | < 1e-05 | 3.14e-05 ± 1.3e-05 | < 1e-05 |  |  |
| G41A U49A | < 1e-05 | < 1e-05 | < 1e-05 |  |  |
| G35A C70U | < 1e-05 | < 1e-05 | < 1e-05 | < 1e-05 | < 1e-05 |
| C16G G62U | < 1e-05 | < 1e-05 | < 1e-05 | < 1e-05 | < 1e-05 |
| G9U A33C U69G | < 1e-05 |  |  |  |  |
| C16G C34G G60U C61G U65A C67G | 8.29e-05 ± 1.8e-05 |  |  |  | 0.000198 ± 6.9e-05 |
| G29C A36C U49C U54G | < 1e-05 |  |  |  |  |
| C16G U69C | 5.13e-05 ± 2e-05 | 0.000195 ± 5.5e-05 |  |  |  |
| A33U G60A | < 1e-05 |  | < 1e-05 | < 1e-05 |  |
| C10U A15G G40U | < 1e-05 | < 1e-05 |  |  |  |
